Assay results from patent US20190367620A1.

Experiments:
[1] = target: human FGFR1 (His-tagged FGFR1b-IIIb or FGFR1b-IIIc; isoform not told at that place) (human) (UniProt P11362); assay: ELISA on coated human FGFR1b (IIIb or IIIc not told)
[2] = target: human FGFR1 (His-tagged FGFR1b-IIIb or FGFR1b-IIIc; isoform not told at that place) (human) (UniProt P11362); assay: ELISA on coated human FGFR1b (IIIb or IIIc not told), IgG1 format
[3] = target: T1, FGFR1 D2 point mutant K60A (human), P11362; assay: SPR as in Example 1.8; conditions: remark: other sources report otherwise
T1 chain: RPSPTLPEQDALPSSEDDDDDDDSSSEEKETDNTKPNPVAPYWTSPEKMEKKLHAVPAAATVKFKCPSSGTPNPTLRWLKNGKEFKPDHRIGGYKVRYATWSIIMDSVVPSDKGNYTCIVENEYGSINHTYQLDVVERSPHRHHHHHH

[4] = target: T2, FGFR1 D2 point mutant K63A (human), P11362; assay: SPR as in Example 1.8; conditions: remark: other sources report otherwise
T2 chain: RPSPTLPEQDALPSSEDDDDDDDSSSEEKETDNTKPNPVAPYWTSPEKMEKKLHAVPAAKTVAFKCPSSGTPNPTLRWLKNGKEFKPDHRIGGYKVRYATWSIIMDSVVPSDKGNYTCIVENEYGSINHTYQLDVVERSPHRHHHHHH

[5] = target: T3, FGFR1 D2 point mutant K95A (human), P11362; assay: SPR as in Example 1.8; conditions: remark: other sources report otherwise
T3 chain: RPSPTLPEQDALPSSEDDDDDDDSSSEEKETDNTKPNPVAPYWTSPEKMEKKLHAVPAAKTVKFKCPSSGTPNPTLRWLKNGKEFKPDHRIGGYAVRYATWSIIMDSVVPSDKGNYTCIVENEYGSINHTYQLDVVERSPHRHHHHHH

[6] = target: T4, FGFR1 D2 point mutant T61A (human), P11362; assay: SPR as in Example 1.8; conditions: remark: other sources report otherwise
T4 chain: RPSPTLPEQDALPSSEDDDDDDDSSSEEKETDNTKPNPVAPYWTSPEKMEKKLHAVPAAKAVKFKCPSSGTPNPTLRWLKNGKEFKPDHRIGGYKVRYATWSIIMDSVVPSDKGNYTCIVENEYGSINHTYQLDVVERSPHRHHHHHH

[7] = target: T1, FGFR1 D2 point mutant K60A (human), …; assay: SPR; free energy change relative to wild-type D2; conditions: remark: other sources report otherwise
[8] = target: T2, FGFR1 D2 point mutant K63A (human), …; assay: SPR; free energy change relative to wild-type D2; conditions: remark: other sources report otherwise
[9] = target: T3, FGFR1 D2 point mutant K95A (human), …; assay: SPR; free energy change relative to wild-type D2; conditions: remark: other sources report otherwise
[10] = target: T4, FGFR1 D2 point mutant T61A (human), …; assay: SPR; free energy change relative to wild-type D2; conditions: remark: other sources report otherwise
huFGFR1a-IIIc (human) = huFGFR1a-IIIc (human) (UniProt P11362); assay: SPR (Biacore 4000), antibody captured, His-tagged FGFR1 injected; no unit in the table, nM inferred from paragraph 90
huFGFR1a-IIIc (human), sequence (P11362 22-376): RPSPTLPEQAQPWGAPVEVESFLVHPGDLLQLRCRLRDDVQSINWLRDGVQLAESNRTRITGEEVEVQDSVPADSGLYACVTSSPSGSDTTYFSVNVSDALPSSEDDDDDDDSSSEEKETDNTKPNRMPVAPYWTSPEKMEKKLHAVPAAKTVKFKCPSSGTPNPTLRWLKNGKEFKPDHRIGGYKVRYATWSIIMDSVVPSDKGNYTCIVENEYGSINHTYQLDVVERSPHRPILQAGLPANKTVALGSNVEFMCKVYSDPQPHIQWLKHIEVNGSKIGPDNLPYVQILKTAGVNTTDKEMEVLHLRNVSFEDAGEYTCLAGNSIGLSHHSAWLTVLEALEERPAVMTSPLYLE

B1: mAb #D01 IgG1 (antibody, V domains shown)
VH: QVQLQESGPGLVKPSGTLSLTCAVSGGSISSNNWWSWVRQPPGKGLEWIGEIYHSGSTSYNPSLKSRVTISVDKSKNQFSLKLSSVTAADTAVYYCARATDWFDHWGQGTLVTVSS
VL: SYVLTQPPSVSVAPGQTARITCGGNNIGSESVHWYQQKPGQAPVLVVYDDSDRPSGIPERFSGSNSGNTATLTISRVEAGDEADYYCQVWDSTSDHRVFGGGTKLTVLG
[1]
  EC50: 0.015 nM

B2: #A08 IgG1 (standard IgG1 built from the #A08 lead heavy and light chains) (antibody, V domains shown)
VH: EVQLQESGPGLVKPSGTLSLTCAVSGGSISSNNWWSWVRQPPGKGLEWIGEIYHSGSTSYNPSLKSRVTISVDKSKNQFSLKLSSVTAADTAVYYCARGTDWFDPWGQGTLVTVSS
VL: SYVLTQPPSVSVAPGQTARITCGGNNIGSESVHWYQQKPGQAPVLVVYDDSDRPSGIPERFSGSNSGNTATLTISRVEAGDEADYYCQVWDSTSDHRVFGGGTKLTVLG
[2]
  EC50: 0.008 nM

B3: mAb #A08 (antibody, V domains shown)
VH: EVQLQESGPGLVKPSGTLSLTCAVSGGSISSNNWWSWVRQPPGKGLEWIGEIYHSGSTSYNPSLKSRVTISVDKSKNQFSLKLNSVTAADTAVYYCARGTDWFDPWGQGTLVTVSS
VL: QAVLTQPPSVSVAPGQTARITCGGNNIGSESVHWYQQKPGQAPVLVVYDDSDRPSGIPERFSGSNSGNTATLTISRVEAGDEADYYCQVWDSTSDHRVFGGGTKLTVL
[3]
  Kd: 13.4 nM
[4]
  Kd: 13.9 nM
[5]
  Kd: 5.86 nM
[6]
  Kd: 5.89 nM
[7]
  ΔΔGmut: 2.51 kcal/mol
[8]
  ΔΔGmut: 2.53 kcal/mol
[9]
  ΔΔGmut: 2.02 kcal/mol
[10]
  ΔΔGmut: 2.02 kcal/mol
huFGFR1a-IIIc (human)
  Kd: 0.7 nM
